From article PMC9308819 (Nature Communications, 2022) come the findings set out here.

Holding throughout (experiment): ITC
For orientation: In ITC the heat of successive injections is recorded.

In assay [1] the target is T1, Rab3D (Homo sapiens (Human), UniProt O95716).
T1 chain: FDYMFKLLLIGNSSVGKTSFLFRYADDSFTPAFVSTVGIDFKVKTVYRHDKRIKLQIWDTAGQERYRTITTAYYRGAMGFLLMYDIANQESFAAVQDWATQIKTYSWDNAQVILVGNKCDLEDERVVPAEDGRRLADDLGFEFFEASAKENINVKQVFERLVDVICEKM

Assay [2] has as its target T2, Rab27A (Homo sapiens (Human), UniProt P51159).
T2 chain: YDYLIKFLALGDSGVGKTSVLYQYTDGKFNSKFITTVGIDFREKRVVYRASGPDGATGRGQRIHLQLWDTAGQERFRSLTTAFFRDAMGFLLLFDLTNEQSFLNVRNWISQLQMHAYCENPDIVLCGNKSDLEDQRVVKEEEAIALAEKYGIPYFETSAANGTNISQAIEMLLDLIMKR

Assay [3] addresses T3, Rab3B (Homo sapiens (Human), UniProt P20337).
T3 chain: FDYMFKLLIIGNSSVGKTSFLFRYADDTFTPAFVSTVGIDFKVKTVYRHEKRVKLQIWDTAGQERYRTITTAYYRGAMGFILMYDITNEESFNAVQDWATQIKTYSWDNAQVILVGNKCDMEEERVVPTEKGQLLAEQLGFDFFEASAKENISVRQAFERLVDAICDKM

Assay [4] addresses T4, Rab3A (Homo sapiens (Human), UniProt P20336).
T4 chain: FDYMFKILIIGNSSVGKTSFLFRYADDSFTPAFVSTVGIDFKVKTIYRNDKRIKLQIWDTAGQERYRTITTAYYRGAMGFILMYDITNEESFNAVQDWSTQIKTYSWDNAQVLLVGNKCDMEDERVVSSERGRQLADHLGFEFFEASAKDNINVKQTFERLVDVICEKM

B1: Rep15 (protein)
chain: VPVVCEVVSEAIVHAAQKLKEYLGFEYPPSKLCPAANTLNEIFLIHFITFCQEKGVDEWLTTTKMTKHQAFLFGADWIWTFWGSNKQIKLQLAVQTLQMSSPPPVESKPCDLSNPESRVEESSWKKSRFDKLEEFCNLIGEDCLGLFIIFGMPGKPKDIRGVVLDSVKSQMVRSHLPGGKAVAQFVLETEDCVFIKELLRNCLSKKDGLREVGKVYISIL
For B1, the Kd was 0.79 µM in assay [1], 86.2 µM in assay [2], 2.16 µM in assay [3] and 0.48 µM in assay [4].

In general, Kd refers to the constant that tells how readily two partners part at equilibrium. A low value points to a tighter complex.
